In PMC7772510:
Changes are numbered by the printed parent chain. Numbers in names are those of the source. Values belong to the binder of their own block, whether it stands above or below them.

How the values were obtained:
[1] = molecular target: complement fragment iC3b (UniProt P01024); experiment: SPR
[2] = molecular target: complement fragment iC3b (UniProt P01024); experiment: ELISA

B2: GST-αX I-domain K242A/K243A (domain or fragment)
chain: RQEQDIVFLIDGSGSISSRNFATMMNFVRAVISQFQRPSTQFSLMQFSNKFQTHFTFEEFRRSSNPLSLLASVHQLQGFTYTATAIQNVVHRLFHASYGARRDAAKILIVITDGAAEGDSLDYKDVIPMADAAGIIRYAIGVGLAFQNRNSWKELNDIASKPSQEHIFKVEDFDALKDIQNQLKEKIFAIEG
Kd [1]: 2890 nM

B4: GST-αX I-domain D249M (domain or fragment)
chain: B2 chain with D103M, A115K, A116K
Kd [1]: 490 nM

The remaining binders from weak to strong by Kd [1], led by results:

Kd [1]: 1060 nM | Kd [2]: 1000 nM
B1: GST-αX I-domain (domain or fragment)
chain: B2 chain with A115K, A116K

Kd [1]: 560 nM
B3: GST-αX I-domain K243S/E244H (domain or fragment)
chain: B2 chain with A115K, A116S, E117H
